Laboratory results taken from patent publication US20030162190, “Phosphoromonothioate and phosphorodithioate oligonucleotide aptamer chip for functional proteomics” (published 2003).

Target: NF-kB p65 (RelA) homodimer (UniProt Q04206 Q04206:1-551)
Assay: EMSA; competitive EMSA; 5 to 15-fold tighter to p65/p65 than p50 homodimer
Settings: chain copies: 2 (stated homodimer)
Description: The example used to illustrate that when only one or two dithioate linkages were placed in a molecule, the inhibition/binding of the oligonucleotide to recombinant protein was similar to that of the unsubstituted aptamer illustrates is shown in FIG. 3—as the substitutions of dithiophosphate were increased, binding by the [S₂]-ODN oligonucleotide increased dramatically. For example, in a standard competitive binding assay, ³²P-IgκB promoter element ODN is incubated with recombinant p65 and varying amounts of XBY aptamer competitor. The relative binding ability of the unlabeled ODNs is determined by the concentration needed to effectively compete with the standard labeled ODN. XBY1 through 6 correspond to CK-14 aptamers with 1 through 6 dithiophsphate substitutions, respectively. The present inventors, according to an embodiment of this invention, developed an oligonucleotide containing six dithioate linkages on the two strands, termed XBY-6.
Competitive binding of XBY-6 to p65 homodimers is performed using EMSAs. XBY-6 concentrations are 1.95 (triangle), 3.89 (open circle), and 7.77 (closed circle).

NF-kB p65 (RelA) homodimer, sequence (Q04206 whole entry, one chain of several): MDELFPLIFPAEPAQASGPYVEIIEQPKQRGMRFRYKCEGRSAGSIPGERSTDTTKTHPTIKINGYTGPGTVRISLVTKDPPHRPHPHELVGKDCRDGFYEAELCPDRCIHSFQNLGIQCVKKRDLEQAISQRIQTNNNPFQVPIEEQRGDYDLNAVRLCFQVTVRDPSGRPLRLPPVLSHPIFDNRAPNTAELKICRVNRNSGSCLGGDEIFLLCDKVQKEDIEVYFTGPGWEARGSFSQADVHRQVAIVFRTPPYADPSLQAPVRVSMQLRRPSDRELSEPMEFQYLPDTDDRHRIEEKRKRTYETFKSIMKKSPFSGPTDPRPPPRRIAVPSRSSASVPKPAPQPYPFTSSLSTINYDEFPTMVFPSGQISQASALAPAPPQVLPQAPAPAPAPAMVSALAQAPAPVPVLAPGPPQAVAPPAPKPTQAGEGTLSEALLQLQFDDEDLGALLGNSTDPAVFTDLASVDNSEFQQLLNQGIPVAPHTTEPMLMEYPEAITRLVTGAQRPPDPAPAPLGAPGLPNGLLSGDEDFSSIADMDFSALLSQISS

B1: XBY-6 (dsDNA)
DNA 1: CCAGGAGATTCCAC
DNA 2: GTGGAATCTCCTGG
modifications: six phosphorodithioate linkages on the two strands, positions shown only in figures
Q: How did the Kd turn out when B1 was run?
A: 1.44 nM
